The record followed here is article PMC3064766 (Nucleic Acids Research, 2010).

The target in one assay is myc-tagged Mot1p (S. cerevisiae, UniProt P32333 1-1867). Kind of assay: co-IP.
For another assay, the target named is T1, myc-tagged Cbp80p (S. cerevisiae, UniProt P34160 1-861).
T1 sequence (looked up): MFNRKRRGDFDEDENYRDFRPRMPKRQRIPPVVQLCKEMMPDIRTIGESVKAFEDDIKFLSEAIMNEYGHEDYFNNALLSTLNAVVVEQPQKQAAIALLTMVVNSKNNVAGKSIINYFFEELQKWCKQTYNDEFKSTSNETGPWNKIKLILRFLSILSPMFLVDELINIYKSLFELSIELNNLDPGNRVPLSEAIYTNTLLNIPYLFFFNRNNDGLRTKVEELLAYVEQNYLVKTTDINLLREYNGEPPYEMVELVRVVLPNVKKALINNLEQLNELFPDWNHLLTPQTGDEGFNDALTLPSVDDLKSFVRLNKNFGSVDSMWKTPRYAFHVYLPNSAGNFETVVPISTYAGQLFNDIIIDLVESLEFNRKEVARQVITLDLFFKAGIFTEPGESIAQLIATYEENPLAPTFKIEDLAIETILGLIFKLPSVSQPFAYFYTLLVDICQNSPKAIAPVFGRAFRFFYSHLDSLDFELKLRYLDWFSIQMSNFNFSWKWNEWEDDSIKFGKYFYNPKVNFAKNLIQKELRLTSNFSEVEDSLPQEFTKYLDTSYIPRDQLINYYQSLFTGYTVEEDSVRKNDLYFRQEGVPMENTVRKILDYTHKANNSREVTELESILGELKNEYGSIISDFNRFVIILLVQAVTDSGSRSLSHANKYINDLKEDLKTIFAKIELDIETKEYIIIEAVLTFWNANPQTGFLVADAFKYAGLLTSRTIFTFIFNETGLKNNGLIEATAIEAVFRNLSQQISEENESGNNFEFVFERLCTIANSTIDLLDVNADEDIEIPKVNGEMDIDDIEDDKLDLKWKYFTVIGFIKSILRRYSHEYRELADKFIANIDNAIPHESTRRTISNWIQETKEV
Kind of assay: pull-down.

Sequence of myc-tagged Mot1p (P32333 whole entry): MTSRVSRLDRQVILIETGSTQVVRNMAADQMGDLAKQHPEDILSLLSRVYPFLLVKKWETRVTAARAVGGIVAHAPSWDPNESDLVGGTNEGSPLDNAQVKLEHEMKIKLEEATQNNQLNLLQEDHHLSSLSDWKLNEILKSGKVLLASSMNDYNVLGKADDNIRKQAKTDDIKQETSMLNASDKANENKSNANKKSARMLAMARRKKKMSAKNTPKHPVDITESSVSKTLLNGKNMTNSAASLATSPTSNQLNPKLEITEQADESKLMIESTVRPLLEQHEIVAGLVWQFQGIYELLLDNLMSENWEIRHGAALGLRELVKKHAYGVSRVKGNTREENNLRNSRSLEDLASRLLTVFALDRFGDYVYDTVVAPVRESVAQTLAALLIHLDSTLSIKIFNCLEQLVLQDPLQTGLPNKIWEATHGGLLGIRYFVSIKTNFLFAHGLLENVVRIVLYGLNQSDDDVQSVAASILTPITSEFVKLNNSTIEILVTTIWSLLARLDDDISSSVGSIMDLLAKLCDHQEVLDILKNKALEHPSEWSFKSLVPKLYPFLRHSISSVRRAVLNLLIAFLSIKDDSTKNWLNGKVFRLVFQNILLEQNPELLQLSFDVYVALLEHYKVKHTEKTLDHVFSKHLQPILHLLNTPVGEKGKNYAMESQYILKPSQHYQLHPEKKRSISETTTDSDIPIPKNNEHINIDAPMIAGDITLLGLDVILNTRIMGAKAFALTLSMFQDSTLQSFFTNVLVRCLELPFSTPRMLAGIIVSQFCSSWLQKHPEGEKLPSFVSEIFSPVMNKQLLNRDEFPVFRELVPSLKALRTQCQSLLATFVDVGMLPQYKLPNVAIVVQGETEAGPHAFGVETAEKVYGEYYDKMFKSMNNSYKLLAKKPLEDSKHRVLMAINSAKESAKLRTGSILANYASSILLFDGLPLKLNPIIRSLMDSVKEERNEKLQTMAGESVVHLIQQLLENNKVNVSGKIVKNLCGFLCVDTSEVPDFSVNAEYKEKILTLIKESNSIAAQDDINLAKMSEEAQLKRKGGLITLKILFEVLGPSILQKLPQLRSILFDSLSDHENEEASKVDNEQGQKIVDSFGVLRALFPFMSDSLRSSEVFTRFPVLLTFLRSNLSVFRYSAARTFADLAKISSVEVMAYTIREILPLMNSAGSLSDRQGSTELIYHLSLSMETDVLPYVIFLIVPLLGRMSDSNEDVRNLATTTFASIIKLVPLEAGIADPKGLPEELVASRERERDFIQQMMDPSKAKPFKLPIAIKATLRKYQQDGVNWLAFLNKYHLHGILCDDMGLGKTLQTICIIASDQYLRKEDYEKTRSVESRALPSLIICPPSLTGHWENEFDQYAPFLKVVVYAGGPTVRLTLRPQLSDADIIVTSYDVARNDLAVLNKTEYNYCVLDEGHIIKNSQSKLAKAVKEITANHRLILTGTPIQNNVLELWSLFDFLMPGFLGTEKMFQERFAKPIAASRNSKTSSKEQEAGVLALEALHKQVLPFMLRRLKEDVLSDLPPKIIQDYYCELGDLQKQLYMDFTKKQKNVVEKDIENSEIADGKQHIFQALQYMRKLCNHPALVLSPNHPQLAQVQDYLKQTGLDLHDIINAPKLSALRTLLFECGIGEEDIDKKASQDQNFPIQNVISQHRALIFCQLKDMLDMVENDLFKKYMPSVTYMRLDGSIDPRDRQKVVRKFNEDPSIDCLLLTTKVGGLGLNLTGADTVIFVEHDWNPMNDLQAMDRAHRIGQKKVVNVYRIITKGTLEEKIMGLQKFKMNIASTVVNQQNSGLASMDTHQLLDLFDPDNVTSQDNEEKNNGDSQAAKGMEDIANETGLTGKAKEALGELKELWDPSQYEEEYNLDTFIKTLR

B1: HA-tagged Cbp20p (natural protein, S. cerevisiae, UniProt Q08920 1-208, looked up)
chain: MSLEEFDEVKYDHSTKRLDTPSRYLLRKARRNPNGLQELRESMKSSTIYVGNLSFYTSEEQIYELFSKCGTIKRIIMGLDRFKFTPCGFCFIIYSCPDEALNALKYLSDTKLDEKTITIDLDPGFEDGRQFGRGKSGGQVSDELRFDFDASRGGFAIPFAERVGVPHSRFDNSSSQSNTNNYIPPPDAMGTFRPGFDEEREDDNYVPQ
As for B1, the binding result with myc-tagged Mot1p and with myc-tagged Cbp80p was “binds” throughout.
